Source: paper PMC6626918 (Frontiers in Microbiology, 2019)

What was measured:
AhpC (BthAhpC) = biological target: T1, AhpC (BthAhpC) (Burkholderia thailandensis, UniProt Q2SWT3); conditions: read-out: Systems / AhpD / Km
T1 construct: gene BTH_I2092

[1] = biological target: Alkyl hydroperoxide reductase subunit C (AhpC) of Burkholderia thailandensis E264, GST-tagged (Burkholderia thailandensis E264) (UniProt Q2SWT3)

Compound | Km (AhpC (BthAhpC)) [µM] | Km of AhpC peroxidase activity for TrxC (NADPH consumption at 340 nm; TrxC varied 0-500 μM, 1 μM AhpC, 1 mM CHP, TrxR system) [1] [µM] | Km of AhpC peroxidase activity for TrxC (NADPH consumption at 340 nm; TrxC varied 0-500 μM, 1 μM AhpC, 1 mM H2O2, TrxR system) [1] [µM] | Km of AhpC peroxidase activity for TrxC (NADPH consumption at 340 nm; TrxC varied 0-500 μM, 1 μM AhpC, 1 mM t-BOOH, TrxR system) [1] [µM]
CC(C)(OO)c1ccccc1 [CHP] | 57.6 ± 1.2 |  |  | 
CC(C)(C)OO [t-BOOH] | 60.1 ± 1.8 |  |  | 
Thioredoxin C (TrxC) of Burkholderia thailandensis E264 (enzyme) |  | 147 | 348 | 202
